# Laboratory results: patent publication US20230079955A1 (POSEIDA THERAPEUTICS, published 2023)
# Substitutions are numbered along the chain they refer to.
# T1: His-tagged p62/p58 MUC1 protein (UniProt P15941 1036-1155, limits assumed)
# T1 construct: domain: p62/p58; Soluble staining reagent for the CAR on T cells, detected with an anti-His secondary antibody; not shown: His tag
# T1 sequence (looked up): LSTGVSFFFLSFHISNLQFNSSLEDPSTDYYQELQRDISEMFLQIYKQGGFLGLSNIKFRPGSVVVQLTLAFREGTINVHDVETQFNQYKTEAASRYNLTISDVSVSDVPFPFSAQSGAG
# B1: "L2H2" CAR (humanized MUC1-C scFv chimeric antigen receptor) (other)
# chain: EILLTQSPDFQSVTPKEKVTFTCRASQSIGTSIHWYQQKPNQSPKLLIKYASESISGVPSRFSGSGSGTDFTLTINSVESEDIADYYCQQSNNWPLTFGQGTKLEIKGGGGSGGGGSGGGGSQVQLVQSGAEVKKPGSSVKISCKTSGYAFSNFWMNWVRQAPGQGLEWIGQIYPGDGDTNYNGKFKGRVTLTADKSTSTAYMELSSLRSEATAVYFCARSYYRSAWFAYWGQGTLVTVSSTTTPAPRPPTPAPTIASQPLSLRPEACRPAAGGAVHTRGLDFACDIYIWAPLAGTCGVLLLSLVITLYCKRGRKKLLYIFKQPFMRPVQTTQEEDGCSCRFPEEEEGGCELRVKFSRSADAPAYKQGQNQLYNELNLGRREEYDVLDKRRGRDPEMGGKPRRKNPQEGLYNELQKDKMAEAYSEIGMKGERRRGKGHDGLYQGLSTATKDTYDALHMQALPPR
# B2: "L2H3" CAR (humanized MUC1-C scFv chimeric antigen receptor) (other)
# chain: B1 chain with R160K, A162R, V190A
# B3: "L3H3" CAR (humanized MUC1-C scFv chimeric antigen receptor) (other)
# chain: B1 chain with T74S, R160K, A162R, V190A
# B4: "L1H2" CAR (humanized MUC1-C scFv chimeric antigen receptor) (other)
# chain: B1 chain with V78L, D85T
# B5: "L1H2B" CAR (humanized MUC1-C scFv chimeric antigen receptor) (other)
# chain: B1 chain with V78L, D85T, G184A
# B6: "L2H4" CAR (humanized MUC1-C scFv chimeric antigen receptor) (other)
# chain: B1 chain with R160K, A162R, V190A, T198S
# B7: "L1H4" CAR (humanized MUC1-C scFv chimeric antigen receptor) (other)
# chain: B1 chain with V78L, D85T, R160K, A162R, V190A, T198S
# B8: "L3H2" CAR (humanized MUC1-C scFv chimeric antigen receptor) (other)
# chain: B1 chain with T74S
# notes: also called 13H2
# B9: "L1H3" CAR (humanized MUC1-C scFv chimeric antigen receptor) (other)
# chain: B1 chain with V78L, D85T, R160K, A162R, V190A
# B10: "L3H4" CAR (humanized MUC1-C scFv chimeric antigen receptor) (other)
# chain: B1 chain with T74S, R160K, A162R, V190A, T198S
# notes: also called 13H4
# Molecular target: MUC1 on MDA-MB-468.lucGFP cells (UniProt P15941 24-1255)
# Sequence (P15941 24-1255): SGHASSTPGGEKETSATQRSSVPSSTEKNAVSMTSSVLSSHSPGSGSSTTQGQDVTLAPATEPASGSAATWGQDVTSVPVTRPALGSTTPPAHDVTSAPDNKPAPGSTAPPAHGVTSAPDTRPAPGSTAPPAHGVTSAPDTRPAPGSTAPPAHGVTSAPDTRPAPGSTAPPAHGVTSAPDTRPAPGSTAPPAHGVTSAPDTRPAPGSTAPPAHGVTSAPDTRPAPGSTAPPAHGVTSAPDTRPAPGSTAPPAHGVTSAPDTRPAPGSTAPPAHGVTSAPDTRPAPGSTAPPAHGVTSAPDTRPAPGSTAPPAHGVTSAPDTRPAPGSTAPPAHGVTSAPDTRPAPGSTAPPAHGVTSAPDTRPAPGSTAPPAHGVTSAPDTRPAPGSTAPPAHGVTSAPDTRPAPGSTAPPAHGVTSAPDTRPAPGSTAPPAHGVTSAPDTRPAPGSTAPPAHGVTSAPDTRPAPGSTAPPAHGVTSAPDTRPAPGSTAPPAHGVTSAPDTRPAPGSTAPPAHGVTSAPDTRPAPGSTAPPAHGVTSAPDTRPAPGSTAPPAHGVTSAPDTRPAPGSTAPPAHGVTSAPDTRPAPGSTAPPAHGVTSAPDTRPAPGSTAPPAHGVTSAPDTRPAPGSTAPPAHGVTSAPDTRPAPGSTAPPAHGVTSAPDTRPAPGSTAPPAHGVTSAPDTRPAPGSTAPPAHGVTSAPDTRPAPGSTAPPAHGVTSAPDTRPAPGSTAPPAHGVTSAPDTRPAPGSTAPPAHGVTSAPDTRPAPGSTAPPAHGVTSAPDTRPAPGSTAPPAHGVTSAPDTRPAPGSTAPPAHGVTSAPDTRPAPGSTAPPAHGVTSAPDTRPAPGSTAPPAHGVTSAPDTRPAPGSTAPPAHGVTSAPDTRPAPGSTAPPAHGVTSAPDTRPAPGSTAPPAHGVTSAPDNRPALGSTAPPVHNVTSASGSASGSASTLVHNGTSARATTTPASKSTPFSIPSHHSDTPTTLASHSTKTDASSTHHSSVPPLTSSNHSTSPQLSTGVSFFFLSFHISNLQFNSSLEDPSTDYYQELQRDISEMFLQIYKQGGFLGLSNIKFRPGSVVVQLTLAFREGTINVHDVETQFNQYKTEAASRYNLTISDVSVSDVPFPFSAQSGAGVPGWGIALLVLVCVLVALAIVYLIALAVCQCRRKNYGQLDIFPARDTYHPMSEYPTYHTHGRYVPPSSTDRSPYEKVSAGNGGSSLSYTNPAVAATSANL
# Experiment: cell-based or functional assay
row,Binder,Target cell killing area under the curve (AUC)
1,B1,482
2,B2,542
3,B3,518
4,B4,466
5,B5,528
6,B6,518
7,B7,498
8,B8,503
9,B9,490
10,B10,501

# Molecular target: T1, His-tagged p62/p58 MUC1 protein
# Experiment: flow cytometry of CAR-T cells stained with His-tagged p62/p58 MUC1 protein and anti-His secondary antibody, day 19
# Description: (§1) MUC1-C candidate CARs were subcloned into a tricistronic piggyBac transposon (EF1alpha promoter-iC9 Safety Switch-T2A-MUC1-C CAR-T2A-DHFR selection gene) and CAR-T cells were produced using pan T cells from a normal human blood donor as described herein (FIG. 6). Expression of each candidate CAR on the surface of piggyBac-modified cells was confirmed by FACS staining 19 days post-transposon delivery using an His-tagged p62/p58 MUC1 protein, followed by anti-His secondary antibody (FIG. 6). Specifically, cells were examined by flow cytometry for surface-expression of CAR on either mock transposed (blue) or anti-CD3/CD28 bead re-activated (red) cells (activation for 48 hours) that received transposon encoding CAR and data are shown as overlaid histograms; numbers represent percentage of cells expressing CAR on cell surface. All candidate MUC1-C CARs were expressed and detected on the surface of piggyBac-produced CAR-T cells (FIG. 7).
row,Binder,MFI (non-activated cells)
1,B1,717 MFI
2,B2,770 MFI
3,B3,696 MFI
4,B4,720 MFI
5,B5,714 MFI
6,B6,729 MFI
7,B7,737 MFI
8,B8,726 MFI
9,B9,743 MFI
10,B10,695 MFI

# Molecular target: T1, His-tagged p62/p58 MUC1 protein
# Experiment: flow cytometry of CAR-T cells (anti-CD3/CD28 bead re-activated, 48 hours) stained with His-tagged p62/p58 MUC1 protein and anti-His secondary antibody
# Description: as §1
row,Binder,MFI (activated cells)
1,B1,3830 MFI
2,B2,2880 MFI
3,B3,2580 MFI
4,B4,3030 MFI
5,B5,2990 MFI
6,B6,3020 MFI
7,B7,2510 MFI
8,B8,3620 MFI
9,B9,3320 MFI
10,B10,1960 MFI
